No end group written: not given here.
Target: T1, PD-L1 expressed on MDA-MB231 cells (human, UniProt Q9NZQ7 19-290)
T1 construct: whole, on cells; Endogenous protein of a human cell line; also called MDA-MB 231 cells expressing PD-L1
Assay: flow cytometry on MDA-MB231 cells after siRNA knockdown of PD-L1

T1 sequence (Q9NZQ7 19-290): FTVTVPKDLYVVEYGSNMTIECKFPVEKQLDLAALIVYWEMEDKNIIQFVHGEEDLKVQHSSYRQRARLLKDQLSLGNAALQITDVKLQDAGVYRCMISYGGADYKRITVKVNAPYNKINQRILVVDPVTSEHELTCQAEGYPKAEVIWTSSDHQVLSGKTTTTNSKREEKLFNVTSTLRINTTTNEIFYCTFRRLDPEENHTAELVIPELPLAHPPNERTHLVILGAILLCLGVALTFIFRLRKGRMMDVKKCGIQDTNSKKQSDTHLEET

Row | Binder | binding result
1 | CVRARTR (also: N-terminal FITC, biotin or Flamma-675 depending on assay, Synthetic peptide CVRARTR from a T7 phage library; also called PBP) [PD-L1Pep-2] | binds
2 | CLQKTPKQC (cysteine pairing not given here; also: N-terminal FITC, biotin or Flamma-675 depending on assay, also called PBP) [PD-L1Pep-1] | binds

— patent publication US20210163534A1 (KYUNGPOOK NATIONAL UNIVERSITY INDUSTRY ACADEMIC COOPERATION …, published 2021)
